The record followed here is article PMC10786891, “Massively parallel profiling of RNA-targeting CRISPR-Cas13d”.

Substitutions are numbered along the chain they refer to. Names may count otherwise.

T1: EsCas13d, nuclease-dead (Eubacterium siraeum, UniProt B0MS50, R295A;H300A;R849A;H854A)
T1 sequence: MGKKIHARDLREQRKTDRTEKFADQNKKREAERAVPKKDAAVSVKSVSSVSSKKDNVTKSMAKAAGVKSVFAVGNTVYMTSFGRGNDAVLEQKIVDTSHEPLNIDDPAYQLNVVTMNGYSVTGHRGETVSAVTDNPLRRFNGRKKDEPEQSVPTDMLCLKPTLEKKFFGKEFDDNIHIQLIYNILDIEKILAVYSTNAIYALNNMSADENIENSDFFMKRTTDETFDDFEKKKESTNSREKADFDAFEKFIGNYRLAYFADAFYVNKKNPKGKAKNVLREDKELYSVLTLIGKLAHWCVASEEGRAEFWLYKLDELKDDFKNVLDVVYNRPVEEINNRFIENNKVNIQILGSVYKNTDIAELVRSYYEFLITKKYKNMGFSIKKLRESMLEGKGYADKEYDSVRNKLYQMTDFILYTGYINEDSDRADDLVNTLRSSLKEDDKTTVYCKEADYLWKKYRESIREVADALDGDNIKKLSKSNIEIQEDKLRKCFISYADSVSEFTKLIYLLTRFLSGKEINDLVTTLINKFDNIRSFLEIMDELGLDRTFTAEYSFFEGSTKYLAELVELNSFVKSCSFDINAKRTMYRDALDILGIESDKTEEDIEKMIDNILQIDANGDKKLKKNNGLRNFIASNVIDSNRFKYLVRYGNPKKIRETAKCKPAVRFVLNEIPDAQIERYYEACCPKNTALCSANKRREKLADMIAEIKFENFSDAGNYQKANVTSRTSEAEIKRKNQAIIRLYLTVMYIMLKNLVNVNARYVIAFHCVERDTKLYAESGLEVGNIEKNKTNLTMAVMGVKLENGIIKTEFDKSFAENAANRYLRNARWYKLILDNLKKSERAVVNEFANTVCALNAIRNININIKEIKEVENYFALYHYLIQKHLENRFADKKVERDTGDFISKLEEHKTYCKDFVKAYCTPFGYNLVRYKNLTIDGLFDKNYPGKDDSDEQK

B1: target 1 MT 5'PFS CCA 3'PFS UCU (mixed)
RNA 1: CACCCGUGCAAAAAUGCAGGGGUCUAAAACUGAGCGGAUAACCUCUCUAUGG
RNA 2: GGGAAUGGAUCCACAUCUACGAAUUCCCACCAUAGAGAGGUUAUCCGCUCAUCUAGAUCGGAAGAGCACACGU
B2: target 1 C4U,C7U (mixed)
RNA 1: B1 RNA 1
RNA 2: B1 RNA 2 with C27G, C28U, C45U, C48U, U52C, U54G
B3: target 1 MT 5'PFS GUG 3'PFS CAG (mixed)
RNA 1: B1 RNA 1
RNA 2: B1 RNA 2 with C27G, C28U, A29G, U52C, C53A, U54G
B4: target 1 MT 5'PFS GUG 3'PFS CAC (mixed)
RNA 1: B1 RNA 1
RNA 2: B1 RNA 2 with C27G, C28U, A29G, U52C, C53A, U54C
B5: target 1 MT 5'PFS CCA 3'PFS UCC (mixed)
RNA 1: B1 RNA 1
RNA 2: B1 RNA 2 with U54C
B6: target 1 MT 5'PFS GGA 3'PFS UAU (mixed)
RNA 1: B1 RNA 1
RNA 2: B1 RNA 2 with C27G, C28G, C53A
B7: target 1 insG 3' of 9,insG 3' of 1 (mixed)
RNA 1: B1 RNA 1
RNA 2: GGGAAUGGAUCCACAUCUACGAAUUCGUACCAUAGAGAGGUUAGUCCGCUCAGCCGAGAUCGGAAGAGCACACGU
B8: target 1 MT 5'PFS CCA 3'PFS UCA (mixed)
RNA 1: B1 RNA 1
RNA 2: B1 RNA 2 with U54A
B9: target 1 MT 5'PFS GUG 3'PFS CAA (mixed)
RNA 1: B1 RNA 1
RNA 2: B1 RNA 2 with C27G, C28U, A29G, U52C, C53A, U54A
B10: target 1 MT 5'PFS GGA 3'PFS UAA (mixed)
RNA 1: B1 RNA 1
RNA 2: B1 RNA 2 with C27G, C28G, C53A, U54A
B11: target 1 MT 5'PFS GGA 3'PFS UAC (mixed)
RNA 1: B1 RNA 1
RNA 2: B1 RNA 2 with C27G, C28G, C53A, U54C
B12: target 1 G15C,G17U (mixed)
RNA 1: B1 RNA 1
RNA 2: B1 RNA 2 with C27G, C28U, G35U, G37C, U52C, U54G
B13: target 1 MT 5'PFS GUG 3'PFS UUC (mixed)
RNA 1: B1 RNA 1
RNA 2: B1 RNA 2 with C27G, C28U, A29G, C53U, U54C
B14: target 1 MT 5'PFS CCA 3'PFS AUG (mixed)
RNA 1: B1 RNA 1
RNA 2: B1 RNA 2 with U52A, C53U, U54G
B15: target 1 MT 5'PFS GUG 3'PFS UUG (mixed)
RNA 1: B1 RNA 1
RNA 2: B1 RNA 2 with C27G, C28U, A29G, C53U, U54G
B16: target 1 MT 5'PFS GUG 3'PFS CAU (mixed)
RNA 1: B1 RNA 1
RNA 2: B1 RNA 2 with C27G, C28U, A29G, U52C, C53A
B17: target 1 MT 5'PFS CCA 3'PFS AUA (mixed)
RNA 1: B1 RNA 1
RNA 2: B1 RNA 2 with U52A, C53U, U54A

The target of this data set is T1, EsCas13d, nuclease-dead. As to the kind of experiment: crRNA (strand 1, pre-loaded); Mg2+; 40 mM Tris-HCl pH 7.5, 150 mM NaCl, 6 mM MgCl2, 1 mM DTT, 0.1% Tween-20, 0.2 mg/ml BSA; 25 C; 10 min per concentration, then washed. As to conditions: tags: His6-TwinStrep-SUMO cleaved; N-terminal SNAP kept (SNAP-Surface 488); label: 3' end held by stalled T7 RNA polymerase.
In turn, B1 had a Kd of 4.9 ± 2.45 nM.

B2 returned an equilibrium dissociation constant (Kd) of 29 ± 5 nM.

Consider B3, for which binding was characterised by a dissociation constant (Kd) of 22.8 ± 2 nM. The result for B4 reads 26.6 ± 2.8 nM; that for B5, ~4.5 nM; that for B6, 11.7 ± 1.5 nM.

Molecule B7 showed a dissociation constant (Kd) of 19.2 ± 2.3 nM. Molecule B8 registered an equilibrium dissociation constant (Kd) of 6.55 ± 1.8 nM. With B9, binding was characterised by a dissociation constant (Kd) of 31 ± 4.5 nM. As to B10, the Kd came out at 21.9 ± 4.9 nM. Consider B11, for which the Kd amounted to 14 ± 6 nM. In turn, B12 displayed a dissociation constant (Kd) of 90 ± 40 nM.

B13 returned a Kd of 11.6 ± 0.9 nM. On to B14, for which the Kd is ~8.15 nM. The result for B15 reads 7.86 ± 0.47 nM. In the case of B16 it was 18.4 ± 2 nM; in that of B17, 6.1 ± 1.7 nM.

As a reminder, the Kd is the constant that tells how readily two partners part at equilibrium.
